Experimental findings from patent publication US9260500B2, “Peptide and use thereof” (Takeda Pharmaceutical Company Limited, priority 2009, dated 2016) are described below.

Non-standard residues stand in square brackets, D forms with d. hArg = N=C(N)NCCCC[C@H](N)C(=O)O; 4Pal = N[C@@H](Cc1ccncc1)C(=O)O; Cha = N[C@@H](CC1CCCCC1)C(=O)O; Cit = NC(=O)NCCC[C@H](N)C(=O)O; hSer = N[C@@H](CCO)C(=O)O; Nle = CCCC[C@H](N)C(=O)O; Aib = CC(C)(N)C(=O)O

In assay [1] the target is T1, human Y2 receptor (Homo sapiens, UniProt P49146).
T1 construct: expressed in transfected cells; membrane fraction
T1 sequence (P49146 1-381): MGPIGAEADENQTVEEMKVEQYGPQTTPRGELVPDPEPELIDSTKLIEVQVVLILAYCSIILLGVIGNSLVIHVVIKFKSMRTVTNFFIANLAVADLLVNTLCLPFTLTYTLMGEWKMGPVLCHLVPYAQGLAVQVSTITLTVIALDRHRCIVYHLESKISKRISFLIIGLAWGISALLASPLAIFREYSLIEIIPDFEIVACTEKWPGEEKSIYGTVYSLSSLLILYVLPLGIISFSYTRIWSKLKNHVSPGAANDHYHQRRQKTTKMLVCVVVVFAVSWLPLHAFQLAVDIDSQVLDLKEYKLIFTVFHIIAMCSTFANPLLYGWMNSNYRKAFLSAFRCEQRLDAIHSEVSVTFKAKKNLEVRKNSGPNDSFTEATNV
The assay can be described thus: Human Y2 Receptor G Protein Binding Assay (GBA), [35S]GTPγS. Type of assay: biochemical. As to conditions: EC50 of test compound/EC50 of PYY(3-36) (PYY3-36 taken as 1), hY2R/CHO membrane fraction. Summed up: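 Agonism measured as [35S]GTPγS binding, read by GF/C filtration and scintillation counting after 120 min at room temperature, using human Y2 membranes at 1 μg protein/mL in pH 7.4 Tris/MgCl2/NaCl/GDP buffer. Compound serially diluted 100 μM–1 nM; EC50 normalized to PYY(3-36) (ratio = compound/PYY).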

Assay [2] deals with T1, human Y2 receptor. The assay can be described thus: Receptor Binding Assay (RBA) for Human Y2, [125I]-PYY displacement on hY2R/CHO membrane fraction. As to conditions: IC50 of test compound/IC50 of PYY(3-36) (PYY(3-36) taken as 1). An outline of the steps: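 hY2R stably expressed in CHO/dhfr− cells; membrane fraction prepared from cells disrupted in 10 mM NaHCO3, 5 mM EDTA buffer with protease inhibitors. Binding read as displacement of [125I]-PYY.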

With “Ac-[D-Pro24, Pya(4)26, Cha27,36, Aib28,31, Arg30]-PYY(23-36) (Ac-S[dP]R[4Pal][Cha][Aib]NR[Aib]TRQR[Cha]-NH2; SMILES CC(=O)N[C@@H](CO)C(=O)N1CCC[C@@H]1C(=O)N[C@@H](CCCNC(=N)N)C(=O)N[C@@H](Cc1ccncc1)C(=O)N[C@@H](CC1CCCCC1)C(=O)NC(C)(C)C(=O)N[C@@H](CC(N)=O)C(=O)N[C@@H](CCCNC(=N)N)C(=O)NC(C)(C)C(=O)N[C@H](C(=O)N[C@@H](CCCNC(=N)N)C(=O)N[C@@H](CCC(N)=O)C(=O)N[C@@H](CCCNC(=N)N)C(=O)N[C@@H](CC1CCCCC1)C(N)=O)[C@@H](C)O) [compound No. 263]”, in the assay with human Y2 receptor [1], the “GBA EC50 Ratio” value was determined as 1.8. For the same substance, the “RBA IC50 Ratio” value in the assay with human Y2 receptor [2] came out at 1.1.

Turning to “Ac-[D-Pro24, Pya(4)26, Cha27,36, Aib28,31, Cit30]-PYY(23-36) (Ac-S[dP]R[4Pal][Cha][Aib]N[Cit][Aib]TRQR[Cha]-NH2; SMILES CC(=O)N[C@@H](CO)C(=O)N1CCC[C@@H]1C(=O)N[C@@H](CCCNC(=N)N)C(=O)N[C@@H](Cc1ccncc1)C(=O)N[C@@H](CC1CCCCC1)C(=O)NC(C)(C)C(=O)N[C@@H](CC(N)=O)C(=O)N[C@@H](CCCNC(N)=O)C(=O)NC(C)(C)C(=O)N[C@H](C(=O)N[C@@H](CCCNC(=N)N)C(=O)N[C@@H](CCC(N)=O)C(=O)N[C@@H](CCCNC(=N)N)C(=O)N[C@@H](CC1CCCCC1)C(N)=O)[C@@H](C)O) [compound No. 266]”, the “GBA EC50 Ratio” value with human Y2 receptor [1] came out at 3.1. Also, the “RBA IC50 Ratio” value with human Y2 receptor [2] was determined as 2.7.

On to “Ac-[D-Pro24, Pya(4)26, Cha27,36, Aib28,31, Har30]-PYY(23-36) (Ac-S[dP]R[4Pal][Cha][Aib]N[hArg][Aib]TRQR[Cha]-NH2; SMILES CC(=O)N[C@@H](CO)C(=O)N1CCC[C@@H]1C(=O)N[C@@H](CCCNC(=N)N)C(=O)N[C@@H](Cc1ccncc1)C(=O)N[C@@H](CC1CCCCC1)C(=O)NC(C)(C)C(=O)N[C@@H](CC(N)=O)C(=O)N[C@@H](CCCCNC(=N)N)C(=O)NC(C)(C)C(=O)N[C@H](C(=O)N[C@@H](CCCNC(=N)N)C(=O)N[C@@H](CCC(N)=O)C(=O)N[C@@H](CCCNC(=N)N)C(=O)N[C@@H](CC1CCCCC1)C(N)=O)[C@@H](C)O) [compound No. 277]”, for which, in the assay with human Y2 receptor [1], the “GBA EC50 Ratio” value is 0.79. Also, the “RBA IC50 Ratio” value with human Y2 receptor [2] was determined as 0.36.

For “Ac-[D-Pro24, Pya(4)26, Cha27,36, Aib28,31, Hse30]-PYY(23-36) (Ac-S[dP]R[4Pal][Cha][Aib]N[hSer][Aib]TRQR[Cha]-NH2; SMILES CC(=O)N[C@@H](CO)C(=O)N1CCC[C@@H]1C(=O)N[C@@H](CCCNC(=N)N)C(=O)N[C@@H](Cc1ccncc1)C(=O)N[C@@H](CC1CCCCC1)C(=O)NC(C)(C)C(=O)N[C@@H](CC(N)=O)C(=O)N[C@@H](CCO)C(=O)NC(C)(C)C(=O)N[C@H](C(=O)N[C@@H](CCCNC(=N)N)C(=O)N[C@@H](CCC(N)=O)C(=O)N[C@@H](CCCNC(=N)N)C(=O)N[C@@H](CC1CCCCC1)C(N)=O)[C@@H](C)O) [compound No. 265]”, the “GBA EC50 Ratio” value with human Y2 receptor [1] stood at 5.7. For the same substance, in the assay with human Y2 receptor [2], the “RBA IC50 Ratio” value worked out at 5.8.

In the case of “Ac-[D-Pro24, Pya(4)26, Cha27,36, Aib28,31, Lys30]-PYY(22-36) (Ac-AS[dP]R[4Pal][Cha][Aib]NK[Aib]TRQR[Cha]-NH2; SMILES CC(=O)N[C@@H](C)C(=O)N[C@@H](CO)C(=O)N1CCC[C@@H]1C(=O)N[C@@H](CCCNC(=N)N)C(=O)N[C@@H](Cc1ccncc1)C(=O)N[C@@H](CC1CCCCC1)C(=O)NC(C)(C)C(=O)N[C@@H](CC(N)=O)C(=O)N[C@@H](CCCCN)C(=O)NC(C)(C)C(=O)N[C@H](C(=O)N[C@@H](CCCNC(=N)N)C(=O)N[C@@H](CCC(N)=O)C(=O)N[C@@H](CCCNC(=N)N)C(=O)N[C@@H](CC1CCCCC1)C(N)=O)[C@@H](C)O) [compound No. 219]”, the “GBA EC50 Ratio” value with human Y2 receptor [1] amounted to 1.7. Also, the “RBA IC50 Ratio” value with human Y2 receptor [2] turned out to be 2.3.

With “Ac-[D-Pro24, Pya(4)26, Cha27,36, Aib28,31, Lys30]-PYY(24-36) (Ac-[dP]R[4Pal][Cha][Aib]NK[Aib]TRQR[Cha]-NH2; SMILES CC(=O)N1CCC[C@@H]1C(=O)N[C@@H](CCCNC(=N)N)C(=O)N[C@@H](Cc1ccncc1)C(=O)N[C@@H](CC1CCCCC1)C(=O)NC(C)(C)C(=O)N[C@@H](CC(N)=O)C(=O)N[C@@H](CCCCN)C(=O)NC(C)(C)C(=O)N[C@H](C(=O)N[C@@H](CCCNC(=N)N)C(=O)N[C@@H](CCC(N)=O)C(=O)N[C@@H](CCCNC(=N)N)C(=O)N[C@@H](CC1CCCCC1)C(N)=O)[C@@H](C)O) [compound No. 251]”, in the assay with human Y2 receptor [1], the “GBA EC50 Ratio” value was determined as 0.56. In addition, the “RBA IC50 Ratio” value with human Y2 receptor [2] is 0.68.

Regarding “Ac-[D-Pro24, Pya(4)26, Cha27,36, Aib28,31, Lys(Ac)30]-PYY(23-36) [compound No. 278]”, the “GBA EC50 Ratio” value in the assay with human Y2 receptor [1] worked out at 1.1. Further, the “RBA IC50 Ratio” value with human Y2 receptor [2] turned out to be 0.97.

As to “Ac-[D-Pro24, Pya(4)26, Cha27,36, Aib28,31, Lys(Hexyl)30]-PYY(23-36) [compound No. 279]”, the “GBA EC50 Ratio” value with human Y2 receptor [1] amounted to 1.3. Further, the “RBA IC50 Ratio” value with human Y2 receptor [2] stood at 1.0.

“Ac-[D-Pro24, Pya(4)26, Cha27,36, Aib28,31, Lys(Me2)30]-PYY(23-36) [compound No. 264]”: the “GBA EC50 Ratio” value with human Y2 receptor [1] is given as 1.7. The “RBA IC50 Ratio” value with human Y2 receptor [2] was determined as 1.1.

For the substance “Ac-[D-Pro24, Pya(4)26, Cha27,36, Aib28,31, Nle30]-PYY(23-36) (Ac-S[dP]R[4Pal][Cha][Aib]N[Nle][Aib]TRQR[Cha]-NH2; SMILES CCCC[C@H](NC(=O)[C@H](CC(N)=O)NC(=O)C(C)(C)NC(=O)[C@H](CC1CCCCC1)NC(=O)[C@H](Cc1ccncc1)NC(=O)[C@H](CCCNC(=N)N)NC(=O)[C@H]1CCCN1C(=O)[C@H](CO)NC(C)=O)C(=O)NC(C)(C)C(=O)N[C@H](C(=O)N[C@@H](CCCNC(=N)N)C(=O)N[C@@H](CCC(N)=O)C(=O)N[C@@H](CCCNC(=N)N)C(=O)N[C@@H](CC1CCCCC1)C(N)=O)[C@@H](C)O) [compound No. 267]”, in the assay with human Y2 receptor [1], the “GBA EC50 Ratio” value was found to be 1.4. For the same substance, the “RBA IC50 Ratio” value in the assay with human Y2 receptor [2] turned out to be 0.96.

With “Ac-[D-Pro24, Pya(4)26, Cha27,36, Aib28,31, Orn30]-PYY(23-36) [compound No. 206]”, the “GBA EC50 Ratio” value with human Y2 receptor [1] came out at 0.83. Moreover, in the assay with human Y2 receptor [2], the “RBA IC50 Ratio” value is listed as 1.5.

For “Ac-[D-Pro24, Pya(4)26, Cha27,36, Aib28,31, Trp30]-PYY(23-36) (Ac-S[dP]R[4Pal][Cha][Aib]NW[Aib]TRQR[Cha]-NH2; SMILES CC(=O)N[C@@H](CO)C(=O)N1CCC[C@@H]1C(=O)N[C@@H](CCCNC(=N)N)C(=O)N[C@@H](Cc1ccncc1)C(=O)N[C@@H](CC1CCCCC1)C(=O)NC(C)(C)C(=O)N[C@@H](CC(N)=O)C(=O)N[C@@H](Cc1c[nH]c2ccccc12)C(=O)NC(C)(C)C(=O)N[C@H](C(=O)N[C@@H](CCCNC(=N)N)C(=O)N[C@@H](CCC(N)=O)C(=O)N[C@@H](CCCNC(=N)N)C(=O)N[C@@H](CC1CCCCC1)C(N)=O)[C@@H](C)O) [compound No. 205]”, in the assay with human Y2 receptor [1], the “GBA EC50 Ratio” value turned out to be 2.4. For the same substance, the “RBA IC50 Ratio” value in the assay with human Y2 receptor [2] came to 2.5.
